± gives the uncertainty stated by the source.

The nature of the data set: self-splicing fitness, log relative to wild type (ln ratio); higher = more splicing; Tetrahymena group I intron in knt gene, E. coli kanamycin selection, DiMSum; sequences stand for … in CUCUCU…GGAGGGAAAAGUUAUCAGGCAUGCACCUGGUAGCUAGUCUUUAAACCAAUAGAUUGCAUCGGUUUAAAAGGCAAGACCGUCAAAUUGCGGGAAAGGGGUCAACAGCCGUUCAGUACCAAGUCUCAGGGGAAACUUUGAGAUGGCCUUGCAAAGGGUAUGGUAAUAAGCUGACGGACAUGGUCCUAACCACGCAGCCAAGUCCUAAGUCAACAGAUCUUCUGUUGAUAUGGAUGCAGUUCACAGACUAAAUGUCGGUCGGGGAAGAUGUAUUCUUCUCAUAAGAUAUAGUCGGACCUCUCCUUAAUGGGAGCUAGCGGAUGAAGUGAUGCAACACUGGAGCCGCUGGGAACUAAUUUGUAUGCGAAAGUAUAUUGAUUAGUUUUGGAGUACUCGUGGUCG
Put shortly: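 Six replicate transformations of E. coli BL21(DE3) with a pET-22b(+) library were grown overnight at 37°C or 30°C. The library randomised all eight P1ex-region intron nucleotides, the intron lying in the knt kanamycin-resistance gene, and plates were LB agar with or without 25 μg/mL kanamycin plus 100 μg/mL carbenicillin, 50 μM IPTG and 0.2% rhamnose. Pooled colonies were amplicon-sequenced on an Illumina HiSeq 2500, and fitness is the DiMSum error-weighted combination of wild-type-normalised replicate fold changes, kanamycin versus none.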

As for UUCAAGCAAUAUUACGAAUG, the “self-splicing fitness (ln)” value (30 °C) was -4.12 ± 0.24 and the “self-splicing fitness (ln)” value (37 °C) was -2.87 ± 0.27.

Turning to UUUAAGCAAUAUUACGAUGU, the “self-splicing fitness (ln)” value is, setting by setting: (30 °C) -2.45 ± 0.14; (37 °C) -1.96 ± 0.18.

For the sequence CACCAGCAAUAUUACGACAU, the “self-splicing fitness (ln)” value is -3.726 ± 0.018 (30 °C) and -2.66 ± 0.035 (37 °C).

With AGUUAGCAAUAUUACGCACG, the “self-splicing fitness (ln)” value was -1.42 ± 0.19 (30 °C) and 0.196 ± 0.22 (37 °C).

For CAGGAGCAAUAUUACGGGUC, the “self-splicing fitness (ln)” value reads like this: (30 °C) -2.84 ± 0.19; (37 °C) -2.92 ± 0.21.

GGCGAGCAAUAUUACGAACA: the “self-splicing fitness (ln)” value was -1.16 ± 0.16 (30 °C) and -0.12 ± 0.14 (37 °C).

As to GAGCAGCAAUAUUACGGUAA, the “self-splicing fitness (ln)” value runs as follows: (30 °C) -1.95 ± 0.13; (37 °C) -0.00417 ± 0.12.

Regarding AGAGAGCAAUAUUACGUCUC, the “self-splicing fitness (ln)” value is, setting by setting: (30 °C) -2.95 ± 0.43; (37 °C) -3.37 ± 0.47.

CCGGAGCAAUAUUACGGAUG: the “self-splicing fitness (ln)” value was -2.78 ± 0.22 (30 °C) and -1.92 ± 0.23 (37 °C).

GUCUAGCAAUAUUACGUCCC: the “self-splicing fitness (ln)” value (30 °C) was determined as 0.0985 ± 0.14 and the “self-splicing fitness (ln)” value (37 °C) was -0.0539 ± 0.14.

Regarding GGGAAGCAAUAUUACGACGC, the “self-splicing fitness (ln)” value runs as follows: (30 °C) -0.0345 ± 0.14; (37 °C) -0.0751 ± 0.18.

As to AUCAAGCAAUAUUACGUCUG, the “self-splicing fitness (ln)” value is -1.16 ± 0.062 (30 °C) and -0.603 ± 0.076 (37 °C).

CGCUAGCAAUAUUACGGGAA: the “self-splicing fitness (ln)” value by setting is: (30 °C) -3.1 ± 0.22; (37 °C) -2.76 ± 0.26.

With GUACAGCAAUAUUACGCCCA, the “self-splicing fitness (ln)” value reads like this: (30 °C) -1.14 ± 0.4; (37 °C) 0.32 ± 0.36.

On to GAACAGCAAUAUUACGACGA, for which the “self-splicing fitness (ln)” value runs as follows: (30 °C) -0.494 ± 0.085; (37 °C) 0.265 ± 0.097.

Take CCUAAGCAAUAUUACGCGAA: the “self-splicing fitness (ln)” value was -2.23 ± 0.22 (30 °C) and -2.61 ± 0.29 (37 °C).

As to GAGCAGCAAUAUUACGGAUA, the “self-splicing fitness (ln)” value runs as follows: (30 °C) -2.15 ± 0.22; (37 °C) -2.11 ± 0.26.

In the case of GUCGAGCAAUAUUACGGACG, the “self-splicing fitness (ln)” value is, setting by setting: (30 °C) -1.43 ± 0.18; (37 °C) -0.738 ± 0.21.

Take GGGAAGCAAUAUUACGGCAA: the “self-splicing fitness (ln)” value is -0.863 ± 0.14 (30 °C) and -1.02 ± 0.14 (37 °C).

Consider CCAUAGCAAUAUUACGGUAU, for which the “self-splicing fitness (ln)” value is, setting by setting: (30 °C) -3.54 ± 0.24; (37 °C) -1.34 ± 0.19.

ACAUAGCAAUAUUACGGUCC: the “self-splicing fitness (ln)” value was -1.91 ± 0.087 (30 °C) and -1.77 ± 0.11 (37 °C).

For GCAAAGCAAUAUUACGGCUU, the “self-splicing fitness (ln)” value runs as follows: (30 °C) -1.48 ± 0.11; (37 °C) -0.763 ± 0.15.

With UCGCAGCAAUAUUACGUGGC, the “self-splicing fitness (ln)” value (30 °C) was -3.81 ± 0.42 and the “self-splicing fitness (ln)” value (37 °C) was -2.45 ± 0.31.

As for UCACAGCAAUAUUACGACCU, the “self-splicing fitness (ln)” value by setting is: (30 °C) -2.97 ± 0.24; (37 °C) -1.16 ± 0.19.

As to AGAAAGCAAUAUUACGGGCA, the “self-splicing fitness (ln)” value (30 °C) was -0.6 ± 0.14 and the “self-splicing fitness (ln)” value (37 °C) was -0.0746 ± 0.12.

In the case of CAUAAGCAAUAUUACGCACU, the “self-splicing fitness (ln)” value runs as follows: (30 °C) -2.12 ± 0.11; (37 °C) -0.81 ± 0.11.

For the sequence AUUGAGCAAUAUUACGUCGC, the “self-splicing fitness (ln)” value (37 °C) is -1.8 ± 0.46.

For the sequence GAAGAGCAAUAUUACGACUA, the “self-splicing fitness (ln)” value (30 °C) is -2.15 ± 0.29 and the “self-splicing fitness (ln)” value (37 °C) was -1.92 ± 0.24.

For UACAAGCAAUAUUACGCAGU, the “self-splicing fitness (ln)” value (30 °C) was -3.96 ± 0.27 and the “self-splicing fitness (ln)” value (37 °C) is -3.27 ± 0.21.

Consider UACGAGCAAUAUUACGUGUA, for which the “self-splicing fitness (ln)” value is, setting by setting: (30 °C) -3.39 ± 0.2; (37 °C) -2.21 ± 0.16.

Regarding GGCGAGCAAUAUUACGCUAC, the “self-splicing fitness (ln)” value is, setting by setting: (30 °C) -1.38 ± 0.22; (37 °C) 1.89 ± 0.48.

AUGGAGCAAUAUUACGCGUG: the “self-splicing fitness (ln)” value reads like this: (30 °C) -3.24 ± 0.16; (37 °C) -1.15 ± 0.14.

For AUCGAGCAAUAUUACGCACU, the “self-splicing fitness (ln)” value (30 °C) is -1.25 ± 0.12 and the “self-splicing fitness (ln)” value (37 °C) is -0.213 ± 0.14.

CUCCAGCAAUAUUACGUGGG: the “self-splicing fitness (ln)” value runs as follows: (30 °C) -3.29 ± 0.11; (37 °C) -2.62 ± 0.14.

On to CGUUAGCAAUAUUACGAUGU, for which the “self-splicing fitness (ln)” value (30 °C) was -2.6 ± 0.26 and the “self-splicing fitness (ln)” value (37 °C) was -1.78 ± 0.36.

For CCGAAGCAAUAUUACGGUAA, the “self-splicing fitness (ln)” value was -1.62 ± 0.13 (30 °C) and -3.15 ± 0.23 (37 °C).

Turning to CUUGAGCAAUAUUACGGAAC, the “self-splicing fitness (ln)” value runs as follows: (30 °C) -2.25 ± 0.2; (37 °C) -2.61 ± 0.33.
